experiment: soluble on expression in E. coli; label from the status in PepcDB or PDB records

Soluble on expression in E. coli, not soluble:
MGSDKIHHHHHHMSFDAMNTTLSLNTSAGSQALTVRDPWALVPSLGDLNAYIAAVNRLPMLTLEEEQSLGQRLRDEHDLEAAGRLVLSHLRLVVSVSRQYLGYGLPHGDLIQEGNVGLMKAVKRFDPSQGVRLVSYALHWIKAEIHEYVLRNWRMVKLATTKAQRKLFFNLRSMKQGFKGDATDSDLHRSTLTDAEIDIVASELKVKREEVIEMETRLSGGDVALDPQTDDGDESYAPIAYLADDRHEPTRVLDAQRRDALAGDGIGEALDVLDARSRRIVEERWLKVNDNGSGGMTLHELAAEYGVSAERIRQIEVAAMKKMRKALAAYA
MGSDKIHHHHHHMSFKKSELLNVLDMAFKKEFGKGLSLISPQWGLIAMKISSSTKTNTYGWLGFFPKMREWVGERQIKKMQAQAMSIENKTFESTVSISRTDIEDDQAGLFAPVVQQAGQSAAELPDDLVFSLLAKGKSTLCYDGQNFFDTDHPVYENVDGTGSHKEQSNLTTGSASEHPTFYILDDTNAIKPFIWQERSAPEIETKFDPSRSDKVFMEDVYLWGVRARGNAGFGFWQLIHCVEETELTADAVMKVLAQMRMLKGDGGKLLNIRPSTILVPPALEFKARQLFEAEIINGSTNPLKGVLKVAVSAQIATA
MGSDKIHHHHHHMSFMDQIPGGGNYPKLPVECLPNFPIQPSLTFRGRNDSHKLKNFISEIMLNMSMISWPNDASRIVYCRRHLLNPAAQWANDFVQEQGILEITFDTFIQGLYQHFYKPPDINKIFNAITQLSEAKLGIERLNQRFRKIWDRMPPDFMTEKAAIMTYTRLLTKETYNIVRMHKPETLKDAMEEAYQTTALTERFFPGFELDADGDTIIGATTHLQEEYDSDYDSEDNLTQNGYVHTVRTRRSYNKPMSNHRNRRNNNPSREECIKNRLCFYCKKEGHRLNECRARKASSNRS
MGSDKIHHHHHHMSGETLYQQLVNEWMELIRNGTVRPGERLPSVRKACAMHKVSPSTILQTYRMLEDRGLIEARPQSGFYVKSAASLPLPRMRRQSAAHHTGEVVDQIEAVMGVQSQADFIDLALASPRGSDFYPTTRFKHIMGRLLRQHPELTTDYPFPPGSERLRRQIAQRAVNWGCVLAADELVISNGCTEALQLALRAVCKPGDTVGVESPTYFALLPMLKDLGLAVIEIPTHPTSGLALDALELLLSEKRLNAVVAMPTVHNPLGSTMPPEAKRRLAQLVNDYQVPLIEDVPHAELFYGASTPDAVKAYDRDGWVLLCSSYSKTLAPGFRIGWIAPGRFLSEVRRLKFSSSLGQPALLEETLAEYLESGGYDHHLRLLRRHFISQMEKLRGAVAQHFPDGTRATLPSGGCLLWVELPSHADTMQLFRAALAERITVVPGAMYSAKGRYRNCLRLSCCYPWNEAYQRALIRVGELAGELAEGH
MGSDKIHHHHHHMSIIYRRRSIRKYQKKDVPDELVKEIIRAAMHAPSACNQQPWHFVVIRNEETKKKIAEIHPHAQMSAEAPVVILVCGDPTLEKCKGYWIQDCSAAVENLLLRATELGLGAVWCGVYPREERVKAFRELLGIPEHVVPFALVPVGYPAEHPVQVDRFKPERIHYEKW
MGSDKIHHHHHHMSIKSGFVALAGKPNVGKSTFINAVMGRKVVIVSDKPQTTRNRINCIYTDKDSQIIFVDTPGIHKPLHRLGEYMVKAAVQALKGVDLVLFMLDAADGFTKTDEHVAKIVNDSGTKTIIAVNKIDVAGEEKAKAVGELAKSMVENVVSVHYISALKGEGVFEVLEKIKEELPEGPQYYPEDMVTDRPLSFMAAEIIREKIFHLTRQEVPHSTAVVIEEIKDRPNGVLYIRANIYVERDSQKGILIGKNGSMIKKIGTLAREELEFLVGRKVYLDLNVKVKEKWREKDFIILQEIGLKDDIK
MGSDKIHHHHHHMSINDKEKKKLQRAILIIACEVARICKKNDIPYFINGGTQIGAVRHNGFIPWDDDFDIGFKRKDYEKFIKACDKDLNKDKFFLQTPETEEYYAFDFAKLQLKGTEIIEDFSKNVKIQHGIFVDLFPHDNIPDCKLKRKLFLFKNHLMKNILWVKCGYGEKKHKSKLSYKMVKFVSKFFSIKQIKQSRSKLLDKYNNTKTTQCIISDYPNDLIMNSWLDDLQLFRFEEVEFYGIKQYDAYLKSLYGDYMSLPPESERIVHSNYKIDFGLYDGLLEDMLYGNNI
MGSDKIHHHHHHMSITKRIRDNQRNTVLSPVPPFPKSMMLEPSNACNHACRFCGNNRSGIKRVNIPVDFARDILAQAAALGVEEVGLYLRGEPFLHPRLNEIVSYAKASGIGYVYLSSNGGCGTTEAYEAVLEAGLDSFKFSINAGNRQDFKAIHGKDDFEKVVERLRWLIAYREATGLDFKIYVSSTFIDATRGAILAMRDEFAPLVDEYYVHGTCPVPGVKSTDLDHGFSLPCPMVFNRVHVTAEGYLNACCFDFENALAVADLTRVPLNDAWASPLFEDLRRKHLMRNAKGVLCGNCVAGGGVEYEPLVMEFMSRSKRHENP
MGSDKIHHHHHHMSKAKELTPEQFRKMQLTELDMLVEFDKVCRKHNINYVLFGGSLLGAVRHKGYIPWDDDADIGMLREDYDTFKKYASEMNSEICYFQDHDTDPEYRWGYGKLRRTNTIYVRVGQEHLKNKTGIFVDVFPMDDVPLSTLGQIVQDRKVYCLRKILWSEVARVQSTGFMKLWYSVLAKIPVEWVFSRLNKYAVKSKNITPNRVRCLSFPATGTLYKKNSLKTRYSMPKSWFTNRAEYLFEGRLLYSSKEYDEVLKYIYGKYMELPPKDKREQHSPFSKIKFQDEEMIV
MGSDKIHHHHHHMSKIVALYNNKGGVSKTTTNFNLGVYLSQQGKRVLMVDCDPQCNLTELFFASRDDLEEPDVQLPGTSIYDALLPRFKGHQGRIEQSGIEVSEHSLYSSLFLFRGDLEFSRAETYLGTSWSQAVTENIHEKNTYIVFNKLMKDIGSARGYDYILCDVGPSTGAITKTVIISCDEIVIPLVPDRFCYQAVKLLGSVISEWIENHKIISDSLVPFGIEPFEGNPKLAGTVLQNFKVHAGSKVKESYIKWQKKITEEIQSSLCKENGFSPKVGFNIEEPYTASIKDVAVLAPVAQLFGRAIFDIEQEHTKEASSNGQMYYGTVWQPWLDRMSEYKEEIAKIAEAIS
MGSDKIHHHHHHMSKKFNCSIKRIRFDENYRPADSTRLTTNFANLARGEHREENLRKTLRMINNRFNALAHWDNPTADRYSVEVDIISIDMDVAGNGHTFPVIETLKTTIVDHKENTRIDGMMGNSFSSYVRDYDFSVVLPEHFNNHSTSPVSAPPEDFGDLHGKLFQYLLNSEAYKAQFNNKLVICLSVSTSKTYHRTTNQHPVLGVEYKQDDYSLTDDYFHKMGLTVRYFMPANSAAPLAFYFAGDLLTDYTDLELISAISTMETFQKIYRPEIYNANATAGEVYQPSLKYQDYSLTQIVYDRAERSQMAVKQGKFTEEQFIKPYQAILEEWAASYDVASKKNLHQ
MGSDKIHHHHHHMSKPSPRHLWHVQPGSNVITHPLKQSHYLNVELMSLEIVAEYPRPPALVACSDHVIVEALGTRICETHDCLRVLETFHPPTYYLPPKAMRKDLLIRSRRSSFCEWKGIANYWDLVIADKRLEGAIWSYPDPTPTFRALTGWYALYPGRMDHCSVNGETVIPQPGQFYGGWITSQVVGPFKGDPAHPQLI
MGSDKIHHHHHHMSKRLMPSTTALQCFEAAARHLSFTRAAQELHLTQSAVSKQVAQLEDMLSHSLFQRIRRRLHLTPAGALYLTEVNKILTQIDISSRYILSYGDETEVLRIATQPTFGARWLVPRLKGFGDRYPRIHLDVRNELEPFDLVQAKADVAFFFGQGTWPGATCIELFSEEVVPVCSPQLLASHRFDSAQALTEHRLLQCVSRPEAWHEWFLGLGLHSQNSYHGPRFDTFYLCIRAAISGCGIALIPRYLVAEELSEGKLVVAWDHPVASNGRHFIAHAEHAAEVPKIRAFVQWIRERVAEGD
MGSDKIHHHHHHMSLALQYFKALSDETRLRLIHVLNRHELSVNELVSILEMGQSRVSRHLKILTGAGLLTSRRDGLWVFYSAAAEGDGRAFLDAVTPFVTTDMVLQADLDMAQKIIEERALKTRQFFNAIAEDWDELNREVLGGFDLAGAVAEAMPQCETAVDLGCGTGSVIERMLQRSQQVIGVDGSPRMLELARRRFVEGAERVSLRIGELDHLPLRDGEADFASINMVLHHLSDPGVALGEIRRVLRLGGQLMVTDFDRHDNERMRSDYGDRWLGFEGVQLEGLLREAGFTVRECRRQGVAKGLALHLMLAEKTQQ
MGSDKIHHHHHHMSLANRTTSSAYRLFNLRLESKTLLSPSLARCVFTGPEVRQMKLDAPDQRIKLLFASESGELTPMTVSDTWYQDYLALPRERRPILRTYTLRSVSRDLQQATIDFVLHGDTGPASSWAGHAKPGDALQIVAPNAEADGASGGYEWAPHDGVEQVLLIADETALPAAMGILEQLATQPSPPSVQAFFEVPKAADCVTPSDFPFAQIHWLPREETGSTIWGERLLYAVQQDVKIPASACINRDDIAQETPEDELLWERATAHRPFYAWVAGESSAIKRLRRYLLDERHLDKETINFMAYWSHR
MGSDKIHHHHHHMSLASFNPRVARLATPPIPSVFGWGRAYDAAAGPLIDLSQAAPGHPPHADLLAWLAQAAGSAEACGYGAIEGELVLRRAYCTHLSELYGAAFTPEQIHITAGANQAFICAAMALAGAGERIALTDPFYFNHDTTLAMLGIETVALPCDSDNGFLPDLDRAEQVVKSGIKALALVTPNNPTGAVYPKELLADLYRLCRAHGVWLIVDETYRDFLNPEFGRPHELFSQPDWPEGLIQIYSFSKSFAIPGHRLAAICAGGPVVEQIAKIMDNLQICAPRAAQIALAKALPVLDGWRAENAAEIARRTVALRRAFDLVPQWHLASIGAYFAFARHPFGQAASIDVAEQLARRAGILAVPGGFFGSRQEGYLRLAFANVDCPTIETLPDRLRTFTLAG
MGSDKIHHHHHHMSLEAPDLLRIRALPLFEAVNDGAFDRLMRGAFLQRFPRGSQLTTQGQPDNFLFVLLEGAIELEGSSSDRESTLALLWPSASLCLASIVLDGPSLMTARTTKGSLILMVPGDAFRQALEEDAGLGRAVAEELAGCFSGAVRSLKNNKLRTARERLVSYLLAQHQRQGGGAVVKLPCRKRVLASLLGMTPENLSRAFASLGPHGVEIDGSTVTLREPEGLAQLARPDPMIDNPIGESFSQAERERRRGGRTAIAAH
MGSDKIHHHHHHMSLHYSVLASGSTGNALYIESEQTRLLVDAGLTGKAMLALFDQIHRSPEKIDGLFVTHEHSDHIKGVGIMARKYNIPLYANEKTWAAMEAKIGKIDPALKFLWEVGEVKQFGDIEVESFNVSHDAADPMFFQFAHEGKRLAHITDTGYVSDRMKGVIRGADAYIFEANHDIGMLQMGHYPWSVKRRILGDYGHVSNEDAAIAMSEVLDDRTKRIHMAHLSKDNNMKELARMSVSQTLASRDVDLSKIQLLDTDPVIPTPLLKL

Source: the DeepSol protein solubility set
